Test results: patent publication US8361442B2, “Oxime conjugates and methods for their formation and use” (The General Hospital Corporation, priority 2002, dated 2013)

Legend:
[1] = parameters: species or system CD1 mice; conditions: mouse, in vivo, iv
Protocol: For animal studies, protein conjugates were labeled with [^111In] after modification of the trypsin portion of conjugates with DTPA. EDC mediated coupling was carried out in aqueous solution at DTPA/EDC/Trypsin lysine residue ratio 500:50:1 at pH 7.5. The resultant DTPA-labeled conjugates were purified by gel chromatography on Sephadex G-25. DTPA to protein molar ratio, as determined by Cu(II) colorimetric assay at 775 nm was approximately 1:4. Unmodified proteins were labeled analogously.
Labeling was performed by transchelation from [^111In] citrate. The labeling solution was prepared by mixing carrier-free [^111In] indium chloride in 0.05 M HCl with a 20-fold volume excess of 0.5 M sodium citrate, pH=5.6. The resultant [^111In] indium citrate solution was added to unbuffered solutions of DTP-modified polymers at 0.2 to 1 mCi of [^111In] per 1 mg of dry substance. The labeled conjugates were separated by gel chromatography on Sephadex G-25, with simultaneous media replacement to sterile isotonic saline. […]
Mice were euthanized at 0.25, 0.5, 1, 2, 4, and 8 hours (n=2). Blood samples and harvested organs (hart, lungs, liver, spleen, kidneys, adrenal glands, stomach, GI, testes, muscle, bone, brain and tail) were analyzed on gamma counter. The amount of radioactivity per organ was expressed as a percentage of the injected dose per gram tissue.

[2] = parameters: species or system mice and rats; conditions: in vivo
From the text: Biokinetics and biodistributions were studied by blood and tissue sampling in rats, mice and rabbits using ^111In labeled preparations at clinically relevant doses. Fast initial stages (if present) were studied by dynamic gamma-scintigraphy in anesthetized animals.
Biokinetics of unmodified polyals of various molecular weights were studied in normal mice, rats and rabbits. Biokinetics of model nanocarriers (PHF graft copolymers) and polyal-modified liposomes were studied in rats. Biokinetics of formylpeptide conjugates were studied in normal rabbits and rabbits with focal bacterial inflammation. Protein conjugates were studied in mice and rats.

B1: Trypsin: Bovine pancreatic trypsin (EC 3.4.21.4) Type III; DTPA-modified, 111In-labeled for animal studies (protein, UniProt P00760 24-246, looked up)
Serine protease 1: IVGGYTCGANTVPYQVSLNSGYHFCGGSLINSQWVVSAAHCYKSGIQVRLGEDNINVVEGNEQFISASKSIVHPSYNSNTLNNDIMLIKLKSAASLNSRVASISLPTSCASAGTQCLISGWGNTKSSGTSYPDVLKCLKAPILSDSSCKSAYPGQITSNMFCAGYLEGGKDSCQGDSGGPVVCSGKLQGIVSWGSGCAQKNKPGVYTKVCNYVSWIKQTIASN
modifications: DTPA-modified, 111In-labeled
notes: Bovine pancreatic trypsin (EC 3.4.21.4) Type III; DTPA-modified, 111In-labeled for animal studies
- clearance of activity from blood within 15 minutes after administration [1]: 80%
- half-life of secondary monoexponential clearance [1]: 4 ± 0.8 h
- blood half-life of unmodified protein [2]: 7 min
